{"source": "paper doi:10.1101/2025.10.28.685015", "about": "(bioRxiv, 2025)", "target": "T1, biotinylated ALFA-tag peptide (WT) (synthetic construct, also: biotin with double DoA linker, end not given here)", "T1 chain": "SRLEEELRRRLTE", "assay": "BLI", "note": "No end group written: not given here."}
{"binder": "ALFA nanobody (NbALFA) (VHH) VHH: EVQLQESGGGLVQPGGSLRLSCTASGVTISALNAMAMGWYRQAPGERRVMVAAVSERGNAMYRESVQGRFTVTRDFTNKMVSLQMDNLKPEDTAVYYCHVLEDRVDSFHDYWGQGTQVTVSS", "values": [{"measurement": "Kd", "result": "0.165 ± 0.002", "unit": "nM"}]}
